Measured values reported in the supplement of paper PMC12783771.
± gives the standard deviation of the averaged measurements.

B1: library; numbered along this chain (parent)
chain: MNIQIGELAKRTACPVVTIRFYEQEGLLPPPGRSRGNFRLYGEEHVERLQFIRHCRSLDMPLSDVRTLLSYRKRPDQDCGEVNMLLDEHIRQVESRIGALLELKHHLVELREACSGARPAQSCGILQGLSDCVCDTRGTTAHPSD

What was measured:
[1] = variants of: B1; assay: sfGFP reporter fluorescence (15 h) (µM FITC); higher = higher leak; details: library round: Round 0; ligand: none
Procedure: (§1)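 Cell-free (BL21 Star DE3 extract, PANOx-SP) biosensing: 1 µL Echo-assembled reactions with linear PbrR variant templates (5 nM) and pPbrR-sfGFP reporter, with 1 µM Pb (lead chloride), 30 µM Zn (zinc acetate) or no ligand; endpoint sfGFP fluorescence after 15 h at 30 °C, calibrated as µM FITC. Round 0 library (alanine scan, site saturation, combinatorial) of PbrR from Cupriavidus metallidurans; 2 biological replicates.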

[2] = variants of: B1; assay: sfGFP reporter fluorescence (15 h) (µM FITC); higher = stronger transcriptional activation; details: library round: Round 0
Procedure: as §1

| Variant | sfGFP reporter fluorescence [1] | sfGFP reporter fluorescence ([2]; ligand: 1 µM Pb) | sfGFP reporter fluorescence ([2]; ligand: 30 µM Zn) |
| --- | --- | --- | --- |
| L28S | 0.0627 ± 0.0015 | 0.0632 ± 0.0023 | 0.0715 |
| M60L P61N L107C G128I | 1.87 ± 0.42 | 3.58 ± 0.081 | 4.97 ± 0.23 |
| P143G | 0.05351 ± 0.00052 | 0.06945 ± 0.00026 | 0.71 ± 0.092 |
| P143H | 0.0585 ± 0.0018 | 0.0786 ± 0.0013 | 0.764 ± 0.072 |
| P143L | 0.0563 ± 0.0018 | 0.0782 ± 0.0029 | 0.837 ± 0.046 |
| P143F | 0.0568 ± 0.0015 | 0.0819 ± 0.0039 | 0.777 ± 0.052 |
| P143R | 0.05864 ± 0.00052 | 0.0806 ± 0.0052 | 0.983 ± 0.14 |
| P143I | 0.05534 ± 0.00052 | 0.0768 ± 0.0023 | 0.801 ± 0.12 |
| P15C | 0.0656 ± 0.0052 | 0.0826 ± 0.0018 | 0.5684 ± 0.001 |
| P15W | 0.061 ± 0.0013 | 0.06139 ± 0.00026 | 0.06634 ± 0.00052 |
| M60L D64K K104V G128M | 3.37 ± 0.19 | 4.36 ± 0.31 | 3.8 ± 0.24 |
| P61N L107C G128I | 1.6 ± 0.35 | 2.91 ± 0.12 | 3.99 ± 0.4 |
| L126V | 0.0555 ± 0.0013 | 0.0581 ± 0.00078 | 0.0586 |
| L126W | 0.0586 | 0.0594 ± 0.0026 | 0.0612 |
| L126I | 0.0542 ± 0.001 | 0.0568 ± 0.0015 | 0.238 ± 0.012 |
| C134F | 0.081 ± 0.001 | 0.202 ± 0.01 | 1.32 ± 0.51 |
| C134T | 0.06542 ± 0.00026 | 0.0823 ± 0.0049 | 1.21 ± 0.096 |
| C134W | 0.145 ± 0.0042 | 0.4695 ± 0.0031 | 1.92 ± 0.047 |
| C134I | 0.0678 ± 0.001 | 0.113 ± 0.0044 | 1.19 ± 0.11 |
| P61C | 0.0755 ± 0.001 | 0.193 ± 0.0083 | 1.78 ± 0.031 |
| P61L | 0.0638 ± 0.0026 | 0.0823 ± 0.0039 | 0.191 ± 0.0057 |
| P61A | 0.0665 ± 0.00078 | 0.108 | 1.22 ± 0.092 |

| Variant | sfGFP reporter fluorescence [1] | sfGFP reporter fluorescence ([2]; ligand: 1 µM Pb) | sfGFP reporter fluorescence ([2]; ligand: 30 µM Zn) |
| --- | --- | --- | --- |
| P61Y | 0.0638 ± 0.0015 | 0.0757 ± 0.0018 | 0.148 ± 0.0023 |
| H89A | 0.05992 ± 0.00026 | 0.05699 ± 0.00026 | 0.06725 ± 0.00026 |
| H89S | 0.0572 ± 0.001 | 0.0579 ± 0.0031 | 0.0627 ± 0.001 |
| H89C | 0.0553 ± 0.0015 | 0.0574 ± 0.0039 | 0.0614 ± 0.0034 |
| H89W | 0.0607 ± 0.0023 | 0.0585 ± 0.00078 | 0.06084 ± 0.00052 |
| H89P | 0.0566 ± 0.0029 | 0.05498 ± 0.00052 | 0.0564 |
| R33K | 0.064 ± 0.0013 | 0.0634 ± 0.0042 | 0.112 ± 0.0065 |
| R33E | 0.06157 ± 0.00052 | 0.06304 ± 0.00052 | 0.0715 ± 0.0031 |
| R33L | 0.0605 ± 0.001 | 0.06175 ± 0.00026 | 0.108 ± 0.0042 |
| R33Y | 0.0647 ± 0.0013 | 0.0618 ± 0.0013 | 0.0702 ± 0.0029 |
| P61N D64K | 0.232 ± 0.0052 | 0.762 ± 0.12 | 3.05 ± 0.076 |
| G128N | 0.0614 ± 0.0023 | 0.0704 ± 0.0042 | 0.875 ± 0.093 |
| G128H | 0.0608 ± 0.0021 | 0.0848 ± 0.0034 | 0.25 ± 0.012 |
| T67A | 0.06047 ± 0.00052 | 0.0709 ± 0.0018 | 0.381 ± 0.063 |
| E88A | 0.061 ± 0.0034 | 0.0859 ± 0.0091 | 0.965 ± 0.07 |
| D135C | 0.0603 ± 0.0013 | 0.0792 ± 0.0036 | 1.73 ± 0.12 |
| D135T | 0.0608 | 0.088 ± 0.001 | 1.13 ± 0.12 |
| D135M | 0.0636 ± 0.0018 | 0.09639 ± 0.00052 | 2.2 ± 0.33 |
| D135H | 0.0665 ± 0.0018 | 0.107 ± 0.0042 | 2.14 ± 0.068 |
| D135V | 0.059 ± 0.001 | 0.081 ± 0.0015 | 1.06 ± 0.13 |
| E81A | 0.0612 ± 0.001 | 0.0792 ± 0.0047 | 0.655 ± 0.13 |
| L40A | 0.0608 ± 0.0031 | 0.0658 ± 0.0018 | 0.207 ± 0.0036 |
